Data set [1] addresses T1, ADAR1-dsRBD3 (dsRBD3-short) (Homo sapiens, UniProt P55265 716-797).
T1 sequence: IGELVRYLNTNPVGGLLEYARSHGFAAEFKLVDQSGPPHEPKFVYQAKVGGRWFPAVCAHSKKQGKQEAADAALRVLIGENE
The experiment in a line: X-ray crystallography; 2.8 A; crystals from 50 mM Na cacodylate pH 6.0, 5% PEG 4000, 30 mM CaCl2, 230 mM KCl; ITC: 25 mM Na-phosphate pH 7.0, 100 mM NaCl, 2 mM 2-mercaptoethanol, 25 °C; 2.25 uM dsRNA in cell, 80 uM protein in syringe. To be noted: protein: recombinant; tags: His6 removed by TEV (residual residues remain); chain copies: 2; self-duplex of 2 copies, 11 bp, 3' overhang 2 nt (CG) on each strand; overhangs pair to form a continuous pseudo-A-form helix; 3 strands per asymmetric unit.

Data set [2] deals with T2, ADAR1-dsRBD3 interface mutant (monomeric) (Homo sapiens, UniProt P55265 708-801, V747A;D748Q;W768V;C773S).
T2 sequence: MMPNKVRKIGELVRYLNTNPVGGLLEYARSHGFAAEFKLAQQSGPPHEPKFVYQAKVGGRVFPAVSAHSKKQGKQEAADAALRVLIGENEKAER
The data set is described as follows: ITC; N = 3.60 ± 0.36; ITC: 25 mM Na-phosphate pH 7.0, 100 mM NaCl, 2 mM 2-mercaptoethanol, 25 °C; 2.25 uM dsRNA in cell, 80 uM protein in syringe. Particulars: protein: recombinant; tags: N-terminal His6 (uncleaved); blunt. Background: In ITC the heat of successive injections is recorded.

Data set [3] addresses T3, ADAR1-dsRBD3 wild-type (dsRBD3-mid) (Homo sapiens, UniProt P55265 708-801).
T3 sequence: T2 sequence with A40V, Q41D, V61W, S66C
The experiment in a line: ITC; N = 4.15 ± 0.42; source data sheet gives 123 nM; ITC: 25 mM Na-phosphate pH 7.0, 100 mM NaCl, 2 mM 2-mercaptoethanol, 25 °C; 2.25 uM dsRNA in cell, 80 uM protein in syringe. To be noted: protein: recombinant; tags: N-terminal His6 (uncleaved); chain copies: 2; blunt.

Where a chain is given by its changes, count along the chain named.

One may read the Kd as the constant that tells how readily two partners part at equilibrium.

B1: 13-nt self-complementary RNA (dsRNA)
RNA 1: CGAAGCCUUCGCG
RNA 2: CGAAGCCUUCGCG
Consider B1, for which the binding result in data set [1] is “binds”.

B2: 24 bp dsRNA duplex (dsRNA)
RNA 1: GGGAUCAAUAUGCUAAGCGAUCCC
RNA 2: GGGAUCGCUUAGCAUAUUGAUCCC
With B2, the equilibrium dissociation constant (Kd) came out at 410 ± 65 nM in data set [2] and 125 ± 25 nM in data set [3].
